The results in this text go back to US20160024487.

The target in data set [1] is T1, Lys(Dnp)-ATNATPQPRIVGG-Lys(Abz).
T1 chain: KATNATPQPRIVGGK

Data set [2] addresses T2, Lys(Dnp)-ATNATLVPRIVGG-Lys(Abz).
T2 chain: KATNATLVPRIVGGK

For data set [3], the target named is T3, Lys(Dnp)-ATNATMFPRIVGG-Lys(Abz).
T3 chain: KATNATMFPRIVGGK

Data set [4] deals with T4, Lys(Dnp)-ATNATIMPRIVGG-Lys(Abz).
T4 chain: KATNATIMPRIVGGK

In data set [5] the target is T5, Lys(Dnp)-ATNATFQPRIVGG-Lys(Abz).
T5 chain: KATNATFQPRIVGGK

Data set [6] concerns the target T6, Lys(Dnp)-ATNATFVPRIVGG-Lys(Abz).
T6 chain: KATNATFVPRIVGGK

The target in data set [7] is T7, Lys(Dnp)-ATNATFMPRIVGG-Lys(Abz).
T7 chain: KATNATFMPRIVGGK

Data set [8] has as its target T8, Lys(Dnp)-ATNATWSPRIVGG-Lys(Abz).
T8 chain: KATNATWSPRIVGGK

The target of data set [9] is T9, Lys(Dnp)-ATNATVYPRIVGG-Lys(Abz).
T9 chain: KATNATVYPRIVGGK

The target of data set [10] is T10, Lys(Dnp)-ATNATVFPRIVGG-Lys(Abz).
T10 chain: KATNATVFPRIVGGK

Data set [11] has as its target T11, Lys(Dnp)-ATNATAWPRIVGG-Lys(Abz).
T11 chain: KATNATAWPRIVGGK

The target in data set [12] is T12, Lys(Dnp)-ATNATQYPRIVGG-Lys(Abz).
T12 chain: KATNATQYPRIVGGK

In data set [13] the target is T13, Lys(Dnp)-ATNATTPPRIVGG-Lys(Abz).
T13 chain: KATNATTPPRIVGGK

Data set [14] addresses T14, Lys(Dnp)-ATNATRTPRIVGG-Lys(Abz).
T14 chain: KATNATRTPRIVGGK

The target in data set [15] is T15, Lys(Dnp)-ATNATFIPRIVGG-Lys(Abz).
T15 chain: KATNATFIPRIVGGK

The target in data set [16] is T16, Lys(Dnp)-ATNATKHPRIVGG-Lys(Abz).
T16 chain: KATNATKHPRIVGGK

Data set [17] deals with T17, Lys(Dnp)-ATNATQHPRIVGG-Lys(Abz).
T17 chain: KATNATQHPRIVGGK

The target of data set [18] is T18, Lys(Dnp)-ATNATQKPRIVGG-Lys(Abz).
T18 chain: KATNATQKPRIVGGK

The target of data set [19] is T19, Lys(Dnp)-ATNATYGPRIVGG-Lys(Abz).
T19 chain: KATNATYGPRIVGGK

Data set [20] addresses T20, Lys(Dnp)-ATNATFPPRIVGG-Lys(Abz).
T20 chain: KATNATFPPRIVGGK

The target of data set [21] is T21, Lys(Dnp)-ATNATWLPRIVGG-Lys(Abz).
T21 chain: KATNATWLPRIVGGK

Data set [22] deals with T22, Lys(Dnp)-ATNATYYPRIVGG-Lys(Abz).
T22 chain: KATNATYYPRIVGGK

The target of data set [23] is T23, Lys(Dnp)-ATNATEGPRIVGG-Lys(Abz).
T23 chain: KATNATEGPRIVGGK

Data set [24] concerns the target T24, Lys(Dnp)-ATNATTTPRIVGG-Lys(Abz).
T24 chain: KATNATTTPRIVGGK

The target of data set [25] is T25, Lys(Dnp)-ATNATFSPRIVGG-Lys(Abz).
T25 chain: KATNATFSPRIVGGK

Data set [26] concerns the target T26, Lys(Dnp)-ATNATSYPRIVGG-Lys(Abz).
T26 chain: KATNATSYPRIVGGK

Data set [27] addresses T27, Lys(Dnp)-ATNATTYPRIVGG-Lys(Abz).
T27 chain: KATNATTYPRIVGGK

For data set [28], the target named is T28, Lys(Dnp)-ATNATQGPRIVGG-Lys(Abz).
T28 chain: KATNATQGPRIVGGK

In data set [29] the target is T29, Lys(Dnp)-ATNATMDPRIVGG-Lys(Abz).
T29 chain: KATNATMDPRIVGGK

Data set [30] concerns the target T30, Lys(Dnp)-ATNATVAPRIVGG-Lys(Abz).
T30 chain: KATNATVAPRIVGGK

Data set [31] has as its target T31, Lys(Dnp)-ATNATHVPRIVGG-Lys(Abz).
T31 chain: KATNATHVPRIVGGK

Data set [32] concerns the target T32, Lys(Dnp)-ATNATQEPRIVGG-Lys(Abz).
T32 chain: KATNATQEPRIVGGK

In data set [33] the target is T33, Lys(Dnp)-ATNATESPRIVGG-Lys(Abz).
T33 chain: KATNATESPRIVGGK

Data set [34] deals with T34, Lys(Dnp)-ATNATVPPRIVGG-Lys(Abz).
T34 chain: KATNATVPPRIVGGK

Data set [35] has as its target T35, Lys(Dnp)-ATNATAQPRIVGG-Lys(Abz).
T35 chain: KATNATAQPRIVGGK

For data set [36], the target named is T36, Lys(Dnp)-ATNATRDPRIVGG-Lys(Abz).
T36 chain: KATNATRDPRIVGGK

Data set [37] deals with T37, Lys(Dnp)-ATNATWMPRIVGG-Lys(Abz).
T37 chain: KATNATWMPRIVGGK

Data set [38] has as its target T38, Lys(Dnp)-ATNATQFPRIVGG-Lys(Abz).
T38 chain: KATNATQFPRIVGGK

The target in data set [39] is T39, Lys(Dnp)-ATNATPHPRIVGG-Lys(Abz).
T39 chain: KATNATPHPRIVGGK

For data set [40], the target named is T40, Lys(Dnp)-ATNATLEPRIVGG-Lys(Abz).
T40 chain: KATNATLEPRIVGGK

Data set [41] has as its target T41, Lys(Dnp)-ATNATKIPRIVGG-Lys(Abz).
T41 chain: KATNATKIPRIVGGK

B1: Human plasma purified Factor Xa (protein)
chain 1: ANSFLEEMKKGHLERECMEETCSYEEAREVFEDSDKTNEFWNKYKDGDQCETSPCQNQGKCKDGLGEYTCTCLEGFEGKNCELFTRKLCSLDNGDCDQFCHEEQNSVVCSCARGYTLADNGKACIPTGPYPCGKQTLER
chain 2: IVGGQECKDGECPWQALLINEENEGFCGGTILSEFYILTAAHCLYQAKRFKVRVGDRNTEQEEGGEAVHEVEVVIKHNRFTKETYDFDIAVLRLKTPITFRMNVAPACLPERDWAESTLMTQKTGIVSGFGRTHEKGRQSTRLKMLEVPYVDRNSCKLSSSFIITQNMFCAGYDTKQEDACQGDSGGPHVTRFKDTYFVTGIVSWGEGCARKGKYGIYTKVTAFLKWIDRSMKTRGLPKAKSHAPEVITSSPLK
For B1, the FXa kcat/KM in [1] stood at 1100 M⁻¹ s⁻¹; in data set [2] it was 360 M⁻¹ s⁻¹; in [3], 55 M⁻¹ s⁻¹; in data set [4], 2100 M⁻¹ s⁻¹; in data set [5], 260 M⁻¹ s⁻¹; in data set [6], 71 M⁻¹ s⁻¹. For the same protein, the FXa kcat/KM in data set [7] was found to be 840 M⁻¹ s⁻¹; in data set [8] it was 52 M⁻¹ s⁻¹; in data set [9], 61 M⁻¹ s⁻¹; in data set [10], 54 M⁻¹ s⁻¹.

B2: Human plasma purified Factor Xa (Molecular Innovations, Inc) (protein)
chain 1: ANSFLEEMKKGHLERECMEETCSYEEAREVFEDSDKTNEFWNKYKDGDQCETSPCQNQGKCKDGLGEYTCTCLEGFEGKNCELFTRKLCSLDNGDCDQFCHEEQNSVVCSCARGYTLADNGKACIPTGPYPCGKQTLER
chain 2: IVGGQECKDGECPWQALLINEENEGFCGGTILSEFYILTAAHCLYQAKRFKVRVGDRNTEQEEGGEAVHEVEVVIKHNRFTKETYDFDIAVLRLKTPITFRMNVAPACLPERDWAESTLMTQKTGIVSGFGRTHEKGRQSTRLKMLEVPYVDRNSCKLSSSFIITQNMFCAGYDTKQEDACQGDSGGPHVTRFKDTYFVTGIVSWGEGCARKGKYGIYTKVTAFLKWIDRSMKTRGLPKAKSHAPEVITSSPLK
As for B2, the FXa kcat/KM in data set [11] came to 460 M⁻¹ s⁻¹; in data set [12], 200 M⁻¹ s⁻¹; in [13], 72 M⁻¹ s⁻¹; in data set [14] it was 1500 M⁻¹ s⁻¹; in data set [15] it was 150 M⁻¹ s⁻¹; in data set [16] it was 56 M⁻¹ s⁻¹. The FXa kcat/KM in [17] worked out at 550 M⁻¹ s⁻¹; in data set [18], 49 M⁻¹ s⁻¹; in data set [19], 41 M⁻¹ s⁻¹; in data set [20] it was 6.2 M⁻¹ s⁻¹; in data set [21] it was 460 M⁻¹ s⁻¹; in data set [22], 48 M⁻¹ s⁻¹. For the same protein, the FXa kcat/KM in data set [23] is 18 M⁻¹ s⁻¹; in [24], 17 M⁻¹ s⁻¹; in data set [25] it was 190 M⁻¹ s⁻¹; in [26] it was 13 M⁻¹ s⁻¹; in data set [27] it was 23 M⁻¹ s⁻¹; in data set [28], 140 M⁻¹ s⁻¹. The FXa kcat/KM in data set [29] was 500 M⁻¹ s⁻¹; in data set [30] it was 62 M⁻¹ s⁻¹; in [31], 39 M⁻¹ s⁻¹; in data set [32], 920 M⁻¹ s⁻¹; in data set [33] it was 5.3 M⁻¹ s⁻¹; in data set [34] it was 6.3 M⁻¹ s⁻¹. The FXa kcat/KM in data set [35] worked out at 460 M⁻¹ s⁻¹; in data set [36], 1400 M⁻¹ s⁻¹; in data set [37], 200 M⁻¹ s⁻¹; in data set [38], 150 M⁻¹ s⁻¹; in [39] it was 360 M⁻¹ s⁻¹; in data set [40], 690 M⁻¹ s⁻¹. In data set [41], this protein came in with an FXa kcat/KM of 62 M⁻¹ s⁻¹.
